In the DeepSol protein solubility set:

Experiment: soluble on expression in E. coli; label from the status in PepcDB or PDB records

Row | Sequence | soluble on expression in E. coli
1 | MPHTGSQHTLQATPKTAQHTGAQKAPEQAIALKKEQQLKNQEGATSHRKAHTEGCHTQKTRMSADKAGLRHRQGSGEVRARTASTRVEGECSSDGVVMMFCMPARGEEEKASGEARGEDVGSSRESRQGTAHKSTCMHTEAASLQKAGEIGKVEDAKT | not soluble
2 | SSRAKRIMKEIQAVKDDPAAHITLEFVSESDIHHLKGTFLGPPGTPYEGGKFVVDIEVPMEYPFKPPKMQFDTKVYHPNISSVTGAICLDILRNAWSPVITLKSALISLQALLQSPEPNDPQDAEVAQHYLRDRESFNKTAALWTRLYASETSNGQKGNVEESDLYGIDHDLIDEFESQGFEKDKIVEVLRRLGVKSLDPNDNNTANRIIEELLK | soluble
3 | MSLKPNYLEERICLNVLANSVENAQACYEAAEGHVVLGVLSKNYETDEAAIDDMKKYQAATNNALSVGLGAGDPNQSQMVARLSEVLQPQHVNQVFTGVGASRALLRQDETVINGLVSPTGKVGYVNIATGPLSSGAPAAEVPIETAIKLLKDMGGSSIKYFPMKGLAHKEEYQAVAAACAKYDFYLEPTGGIDLENFEEIVQIAVDAGVKKIIPHVYSSIIDQETGDTRTEDVKTLLTMMKKTLNK | not soluble
4 | MKAFNYYAPTEIIFGCGRVQEIGSITAQYGKKALLVTVPEFPEVKELYEKVKKSLRENGVEVVHFDGVIPNPTTDVVTEGANMAKAAGVDVVIGLGGGSSIDTAKAIAVEATHPGTAWDYNCHTPGPTSATLPIIAIGTTAGTGSQCTQCAVITKTSEKDKSAIWHKNIFPKVAIVDPEVTVTMPKSVTAQTGFDAFAHNFEAYLSVKTSPLVEMMAIEAIKMIKEYLPKALENPNDIEARSKMSLADTLGGLTNSNAGVTLPHGLGMQVGGHAPHVSHGQALAIIYPQFTRYTYAWAIEKFAKVGRIFNPALNELSDEEAAKEACVAIDDFLKKIGLWIGFKDVNVTKEQIREIADDGQVLGDYLNNPRVATIDEMYELLMNCYERKE | soluble
5 | MNHQYQDLIDIFNQTFYADYNTKLELGGDEPIYLPADERVSYHRIIFARGFYASALHEIAHWCVAGPQRRLLEDFGYWYEPDGRTAQVQAEFEKVEIRPQAYEWILAISAGFPFTVSCDNLNGDFEPDRLAFMSKVHSEVLKILEQGLPQRVKMLSEALRAFYQTPALLPEHFVVK | not soluble
6 | MAELKALQNGSDIRGIALDTEEQTATLTATAVAEIAVGVVRWLQDKKQLPRKAQQRLTIAIGHDSRLTAEPIKQALVDTFLSLGIQVIDVGLATTPAMFMATQFPTLQCDAAIMITASHLPYYFNGLKFFTAEGGAEKEDIRYILSHTDPLTANENGTLMKQELLPIYAEHLVEKIRQGIHSPEEKPLQGFRIIVDAGNGAGGFFAEQVLQVLGADTTGSQFLEPDGHFPNHVPNPDNSEAMKSIQTAVLANQADLGIIFDTDVDRSAVVDQSGEVLNRNNLIAVLAAIVLKEAPGSYIVTNSPTSSHLKTFIEEKGGQQIRYISGYRNVINKMIELNHGGFQTPLAIETSGHAAFQENYNLDDGAYVVAKILMLLPELKQNNQTLGDLIATLKQPAETNEFRFKITAEDVTCYGQQVLRDFELFVENQADFAVDRENQEGVRGNVSGQYGSGWFLLRLSLHEPLLVLQVENDQSDKNACVIEKIATFLQKYEEIDSQQIEK | not soluble
7 | VRLLESGGGLVQPGGSLKLSCAASGFDYSRYWMSWVRQAPGKGLKWIGEINPVSSTINYTPSLKDKFIISRDNAKDTLYLQISKVRSEDTALYYCARLYYGYGYWYFDVWGAGTTVTVSSAKTTPPSVYPLAPGSAAAAASMVTLGCLVKGYFPEPVTVTWNSGSLAAGVHTFPAVLQAALYTLSSSVTVPSSSWPSETVTCNVAHPASSTKVDKKIVPRA | soluble
8 | MGHHHHHHSHMGNCQAVNAAVLVLQHPGGIIDRYYSSVSVTEVMAMYPGHYVSLIIPLSEEEEKNIPATEKGDDKKQRKAVRFTRVQLLRPTENLVLGHAYRLITSQEVMKVLREKKSAKTKKHQIEKTTTAKKFSDKKVPEKKQGKQFRVIRNSTSLLKSKTWRPSLQSISEATS | soluble
9 | MGSDKIHHHHHHQNQPLRITIDEGIIEPLPYAAPNFVPDSPAAAEYAAEIARVLAADLTGSGLFREIPSTAYISQVTSFDAPVQFADWKAINAQALITGAVSVSGNRLTVRFRLWDVFAGAELGSGLQFAGTTDGWRRMSHKVADAVYSRITGESGYFDSRVAFVSESGPKDQRRKRLAIMDYDGANVQYLTDSSSIVLAPRFSPTGDRVLYTSYQGGFPRIHILDVGQVQQRVLQSQDGTMSFAPRFSPDGQTVLFSLAQGGNTDLYAMNIASGQSTRLTSAPSIETAPSYAPDGSRIVFESDRSGTPQLYVMSAAGGEATRISFGQGRYGTPVWSPRGDLIAFTKQSKGRFHIGVMRADGSEERLLTASFLDEGPTWSPNGRVIMFTRETQGASGRAALYSVDISGRNLRPVRTPDGGSDPSWSPLQK | not soluble
10 | MLAAKNILNRSSLSSSFRIATRLQSTKVQGSVIGIDLGTTNSAVAIMEGKVPKIIENAEGSRTTPSVVAFTKEGERLVGIPAKRQAVVNPENTLFATKRLIGRRFEDAEVQRDIKQVPYKIVKHSNGDAWVEARGQTYSPAQIGGFVLNKMKETAEAYLGKPVKNAVVTVPAYFNDSQRQATKDAGQIVGLNVLRVVNEPTAAALAYGLEKSDSKVVAVFDLGGGTFDISILDIDNGVFEVKSTNGDTHLGGEDFDIYLLREIVSRFKTETGIDLENDRMAIQRIREAAEKAKIELSSTVSTEINLPFITADASGPKHINMKFSRAQFETLTAPLVKRTVDPVKKALKDAGLSTSDISEVLLVGGMSRMPKVVETVKSLFGKDPSKAVNPDEAVAIGAAVQGAVLSGEVTDVLLLDVTPLSLGIETLGGVFTRLIPRNTTIPTKKSQIFSTAAAGQTSVEIRVFQGERELVRDNKLIGNFTLAGIPPAPKGVPQIEVTFDIDADGIINVSARDKATNKDSSITVAGSSGLSENEIEQMVNDAEKFKSQDEARKQAIETANKADQLANDTENSLKEFEGKVDKAEAQKVRDQITSLKELVARVQGGEEVNAEELKTKTEELQTSSMKLFEQLYKNDSNNNNNNNGNNAESGETKQ | not soluble
11 | MTSPYATIVDAREFNAPMFAEKIDRALRAGEKDAVVNVITSISNAQRQQLREPYKLKYGKDIIQALDKKFSGDLEKAIFALMETPLDYDVKQLKAAMKGLGTDEAVLIEILCSRTVDQLRAIRVTYEKEYGKALEADIAGDTSGEFRDLLVSLVTGSKDGSHDTNDAQAKDDAVRLFADGKAKLAKKDGTHFLHILATQNQYQLRKVFAYFQELAGGSIEKSIEKEFSGDLQKSYLTIVRAASDKQKFFAQQLHASMKGLGTRDNDLIRVIVTRSEVDLELIKAEFQELYSKSLADTVKGDTSGAYRDALLSIINGNHATAH | not soluble
12 | MLTEKTKKELIRLSKVNNYIIKVETNQNFKHQSKCGDQILFQIIETNNGKFNLKHHASGCIVLLASANALNKLCNNKAKSEILNLVQKVINSNFANLDEIDVSLKIFNVFTNTNRKDCFLLPYKSLKDSLESYKPLRRTIRLEHHHHHH | not soluble
13 | RKEEVLFGSFRLFTVTPVRYIKEIVTIGFPASIQNLIYASISMVLTRLVTGWGDTAVAIQRVGGQVESVSWMVGEGFAAAVNSFTGQNFGAGLFDRVKKGFSAAVK | not soluble
14 | IGFRFDDSKGTVFIDGDVEEITGYSTEDFLSHRVKWADLVLPEDQYLIFERINRSVSNPDHSIETEYRIKRKNGEIRWIREFLQKFPEESKNSRQFQGFIHDITGRKKA | not soluble
15 | MGSDKIHHHHHHMVIKNIDAATVAKKFLVRGYNIDPKAAELICKSGLFSDELVDKICRIANGGFIIEKSVVEEFLRNLSNLKPATLTPRPEERKVEEVKASCIALKVIKDITGKSSCQGNVEDFLMYFNSRLEKLSRIIRSRVNTTPIAHAGKVRGNVSVVGMVNEVYERGDKCYIRLEDTTGTITCVATGKNAEVARELLGDEVIGVTGLLKGSSLYANRIVFPDVPINGNGEKKRDFYIVFLSDTHFGSKEFLEKEWEMFVRWLKGEVGGKKSQNLAEKVKYIVIAGDIVDGIGVYPGQEDDLAISDIYGQYEFAASHLDEIPKEIKIIVSPGNHDAVRQAEPQPAFEGEIRSLFPKNVEHVGNPAYVDIEGVKVLIYHGRSIDDIISKIPRLSYDEPQKVMEELLKRRHLSPIYGGRTPLAPEREDYLVIEDVPDILHCGHIHTYGTGFYRGVFMVNSSTWQAQTEFQKKVNLNPMPGNVAVYRPGGEVIRLRFYGE | not soluble
16 | MDVYHDGACPEVKPVDNFDWSQYHGKWWEVAKYPSPNGKYGKCGWAEYTPEGKSVKVSRYDVIHGKEYFMEGTAYPVGDSKIGKIYHSRTVGGYTKKTVFNVLSTDNKNYIIGYSCRYDEDKKGHWDHVWVLSRSMVLTGEAKTAVENYLIGSPVVDSQKLVYSDFSEAACKVNNSNWSHPQFEK | soluble
17 | MEEDSIHLPTHLRLQPIYWSRDDVAQWLKWAENEFSLRPIESNKFEMNGKALLLLTKEDFRYRSPHSGDVLYELLQHILKQRKSRMLFSPFFPPGDSIHTKPEVLLHQNHDEDNCVQRTPRTPAESVHHNPPTIELLHRPRSPITTNHRPSPDPEQQRPQRSPLDNMSRRLSPVEKAQGPRLQQENNHQETYPLSVSPVENNHCLPSSPWQESTRVIQLMPSPIMHPLILNPRHSHSVDFKQSRHSEDGMNREGKPINLSHREDLAYLNHIMVSMSPPEEHAMPIGRIADCRLLWDYVYQLLSDSRYENFIRWEDKESKIFRIVDPNGLARLWGNHKNRTNMTYEKMSRALRHYYKLNIIRKEPGQRLLFRFMKTPDEIMSGRTDRLEHLESQVLDEQTYQEDEPTIASPVGWPRGNLPTGTAGGVMEAGELGVAVKEETRE | soluble
18 | MGSDKIHHHHHHMKLVSLRLEEGLIEKIDEVARKTLQSRSEIIRSSIALYLSLLENIGFYFKPSLPMKNVDVYEERNAVNVDLGNLTSVSVLSVSYGGVGELELDFRKDLGFVAEVMANQVAVETCCRFITPLLVMLTSTCEFLYTHTFFRMFSEAIRERMKVRTMLAGYEEFFETKQSGFVATVVGLRDMSTRNSPRRGDRIYFFGNAVSGAELSEEELLDMADVERLVGLVKEGKASAIFPVKSGGLKEVADYAAALAGGKAMLFEKRGGCPATAIVLTSAEDLSGYGCELVGEIL | not soluble
19 | MSLDSSLFRKPSPRPLRQPTTPFHLQKTLILDLDETLIHSTSRPIHYPGGSSGGGGLLGLSVGGVFGSGRANEGHTVEVVVNGRSTMYHVYKRPYVDHFLKKVASWYTLVIFTASMPEYADPVIDWLDGGRNLFARKLYRENCHVQPNGSYIKDLTLVEKDLSRVCFMDNSPVSYSWNKGRLFSTWRSLEPDRMGTANALPIEGWTSDPNDEALLHSIPVLDSLRFVNDVRRVLGIRGAARARSEGHHHHHH | soluble
20 | TEPPGVIIVGESEFSFHLGINLRDHGIPVMMFNLFENTSEKAHEAGFEVFKGNLLSSNDRIYSDLLRYNKCILMTQSFIFNSLAFNELVPEFGLNNVDMMPVSFNDEQARNNLNGPIRNHILFDENHTPRWFNQFITQHNIVEVPAEDYEKITEN | not soluble
21 | GSQEVRRGDFVRNWQLVAAVPLFQKLGPAVLVEIVRALRARTVPAGAVICRIGEPGDRMFFVVEGSVSVATPNPVELGPGAFFGEMALISGEPRSATVSAATTVSLLSLHSADFQMLCSSSPEIAEIFRKTALERRGAAASA | soluble
22 | MNQQEFQLREITYQDIKDLLAIEREVYAGELPWTMSAFMAELGSKAPHLYLLAAINGKTVGFIGCRIQGTDAHITNVAVHTAYQGLGLGRSLIEETRIFAKKNRCETLSLEVRMSNVKAQRLYRKIGFVSQTVKKGYYDENNEDALEMIIDLKEE | not soluble
